From PMC2844784 (Cell host & microbe, 2010)

Molecular target: T1, recombinant Set7/9-KMT7 (UniProt Q8WTS6 1-366)
T1 sequence (looked up): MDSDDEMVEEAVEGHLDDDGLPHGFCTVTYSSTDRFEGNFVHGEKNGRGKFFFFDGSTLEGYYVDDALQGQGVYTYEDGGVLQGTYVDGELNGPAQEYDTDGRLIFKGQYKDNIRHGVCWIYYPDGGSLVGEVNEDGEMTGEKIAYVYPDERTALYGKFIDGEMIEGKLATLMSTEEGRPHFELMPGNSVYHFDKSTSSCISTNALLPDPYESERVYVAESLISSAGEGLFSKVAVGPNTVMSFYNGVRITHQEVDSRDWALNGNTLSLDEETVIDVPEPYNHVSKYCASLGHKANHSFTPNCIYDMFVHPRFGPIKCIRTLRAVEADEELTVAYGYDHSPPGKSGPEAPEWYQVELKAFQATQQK
Test: in vitro binding reaction

B1: full-length synthetic Tat protein (aa 1-72) (natural protein)
chain: MEPVDPRLEPWKHPGSQPKTACTNCYCKKCCFHCQVCFITKALGISYGRKKRRQRRRAHQNSQTHQASLSKQ
  binding result: binds
